In the nanobody polyreactivity screen of Harvey et al. (2022):

Assay: yeast display, Sf9 membrane polyspecificity reagent, FACS + sequencing; frameworks hold sequencing errors
In short: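 In a synthetic yeast display library (Saccharomyces cerevisiae BJ5465), nanobody expression was induced with galactose for 36–48 hours. FACS gates were set low and high (top ~1%) using anti-HA fluorescence for expression and streptavidin fluorescence for binding of the Sf9 membrane reagent. Each polyreactivity label is drawn from the gate of origin.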

Sequence	polyreactivity (PSR sort gate)
QVQLVESGGGLVQAGGSLRLSCAASGSTFSRYAMGWYRQAPGKERELVAAISSRGGSTYYADSVKGRFTISRDNAKNTVYLQMNSLKPEDTAVYYCAARPYYYIVRGTEYDYWGQGTQVTVSS	high polyreactivity
QVQLVESGGGLVQAGGSLRLSCAASGSTFSRYAMGWYRQAPGKERELVAAISWSGGRTNYADSVKGRFTISRDNAKNTVYLQMNSLKPEDTAVYYCNAPFRHRYRVDYWGQGTQVTVSS	high polyreactivity
QVQLVESGGGLVQAGGSLRLSCAASGSTFSRYAMGWYRQAPGKERELVAAISYSGDSTYYADSVKGRFTISRDNAKNTVYLQMNSLKPEDTAVYYCNVYSHYRGYYWGQGTQVTVSS	high polyreactivity
QVQLVESGGGLVQAGGSLRLSCAASGSTFSRYTMGRYRQAPGKERELVAAIRRSGASTYYADSVKGRFTISRDNAKNTVYLQMNSLKPEDTAVYYFAVGRYRYGYWGQGTQVTVSS	high polyreactivity
QVQLVESGGGLVQAGGSLRLSCAASGSTFSRYTMGWYRQAPGKERELVAAISKSGGSTYYADSVKGRFTISRDNAKNTVYLQMNSLKPEDTAVYYCAALVRAGTSLDYDYWGQGTQVTVSS	high polyreactivity
QVQLVESGGGLVQAGGSLRLSCAASGSTFSSNAMGWYRQAPGKERELVAAINRTGNTYYADSVKGRFTISRDNAKNTVYLQMNSLKPEDTAVYYRNTVLNLYRGGGYWGQGTQVTVSS	low polyreactivity
QVQLVESGGGLVQAGGSLRLSCAASGSTFSSNAMGWYRQAPGNERELVAAISKRGGRTYYADSVKGRFTISRDNAKNTVYLQMNSLKPEDTAVYYCAKDYSSAVDYWGQGTQVTVSS	high polyreactivity
QVQLVESGGGLVQAGGSLRLSCAASGSTFSSYAMGWYRQAPGKERELVAAITYSGGSTYYADSVKGRFTISRDNAKNTVYLQMNSLKPEDTAVYYCATRSLFWSFTYYYWGQGTQVTVSS	low polyreactivity
QVQLVESGGGLVQAGGSLRLSCAASGSTFSSYAMGWYRQAPGKERELVARITSGDSTYYADSVKGRFTISRDNAKNTVYLQMNSLKPEDTAVYYCNAVAYGRTYDYWGQGTQVTVSS	high polyreactivity
QVQLVESGGGLVQAGGSLRLSCAASGSTFSSYVMGWYRQAPGKERELVAGITRGGRTYYADSVKGRFTISRDNAKNTVYLQMNSLKPEDTAVYYCNARDGVTTEFDYWGQGTQVTVSS	low polyreactivity
QVQLVESGGGLVQAGGSLRLSCAASGSTFSTYAMGWYRQAPGKERELVAAIRWSGGSTYYADSVKGRFTISRDNAKNTVYLQMNSLKPEDTAVYYCAKGIRRWYGGSDYWGQGTQVTVSS	low polyreactivity
QVQLVESGGGLVQAGGSLRLSCAASGSTFSTYAMGWYRQAPGKERELVAVITWRGGSTYYADSVKGRFTISRDNAKNTVYLQMNSLKPEDTAVYYCAAEGESPEYDYWGQGTQVTVSS	low polyreactivity
QVQLVESGGGLVQAGGSLRLSCAASGSTFSTYAMGWYRQAPGTERELVAASRWSGGSTYYADSVKGRFTISRDNAKNTVYLQMNSLKPEDTAVYYCAKGIRRWYGGSDYWGQGTQVTVSS	low polyreactivity
QVQLVESGGGLVQAGGSLRLSCAASGSTFSVNAMGWYRQAPGKERELVAAITYSGGSTYYADSVKGRFTISRDNAKNTVYLQMNSLKPEDTAVYYCAAEARYWIYEYDYWGQGTQVTVSS	high polyreactivity
QVQLVESGGGLVQAGGSLRLSCAASGSTFSVNPMGWYRQARVKERELVAAIDSGDSTYYADSVKGRFTISRDNAKNTVYLQMNSLKPEDTAVYYCATDVTFVYDLGYFQYDYWGQGTQVTVSS	low polyreactivity
QVQLVESGGGLVQAGGSLRLSCAASGSTFSVYAMGWYRQAPGKERELVAAISSGGTTNYADSVKGRFTISRDNAKNTVYLQMNSLKPEDTAVYYCAAEYDHYPYDYYWGQGTQVTVSS	low polyreactivity
QVQLVESGGGLVQAGGSLRLSCAASGSTFSYFAMGWYRQAPGKERELVAAISWNGGSTYYADSVKGRFTISRDNAKNTVYLQMNSLKPEDTAVYYCAAHPAYRDSWGEYDYWGQGTQVTVSS	low polyreactivity
QVQLVESGGGLVQAGGSLRLSCAASGSTFSYNAMGWYRQAPRKERELVAAISNTGSTYYADSVKGRFTISRDNAKNTVYLQMYSVKPEDSAVYYCAALWVHKRRQNSAHYDSWGQGTQVTVSS	low polyreactivity
QVQLVESGGGLVQAGGSLRLSCAASGSTFSYNAMGWYRQAPWKERELVAAISWNGDSTYADSVKGRFTISRDNAKNTVYLQMNSLKPEDTAVYYCAKDTIITPGRRKSPRYRHGYWGQGTQVTVSS	low polyreactivity
QVQLVESGGGLVQAGGSLRLSCAASGSTFSYNAMGWYRRAPGKERELVAAISWNGDSTYADSVKGRFTISRDNAKNTVYLQMNSLKPEDTAVYYCAKETIITPGRRKSPRYLHGYWGQGTQVTVSS	low polyreactivity
QVQLVESGGGLVQAGGSLRLSCAASGSTFSYYAMGSYRQAPGKERELVADISWSGGSTYYADSVKGRFTISRDNAKNTVYLQMNSLKPEDTAVYYCAARGYVRWYNRYDYWGQGTQVTVSS	low polyreactivity
QVQLVESGGGLVQAGGSLRLSCAASGSTFSYYAMGWYRQAPGKERELVAAISRSGGSTYYADSVKGRFTISRDNAKNTVYFQMNSMKPEDTAVYYCADRGQYRYSFGDYSWGQGTQVTVSS	high polyreactivity
